± gives the uncertainty stated by the source.
Assay: protein stability index of a GFP-peptide fusion (yeast GPS) (PSI 1-4); higher = more stable; sorted into four equal gates, so the index is relative within each strain
In short: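 Plasmids isolated from each sorting gate were PCR-amplified and Illumina-sequenced, and barcodes assigned the reads to strains. The gates, four of equal size, were set by GFP/Cherry fluorescence ratio on mid-log cultures in leucine-free medium. These cultures were yeast carrying a pooled library of tiled 17-residue yeast protein peptides fused downstream of GFP on a plasmid that also expresses Cherry. The protein stability index is the sum of every gate's read frequency times its gate number.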

SAKTRSHNWAAKAKRRH [RPL37B]
protein stability index (doa10∆): 3.42 ± 0.093 | protein stability index (pdr5∆): 3.32 ± 0.071 | protein stability index (san1∆): 3.31 ± 0.059 | protein stability index (ubr1∆): 3.41 ± 0.042

SKLLYDDVTCDKLSVSE [SIN4]
protein stability index (doa10∆): 3.08 ± 0.07 | protein stability index (pdr5∆): 3.02 ± 0.053 | protein stability index (san1∆): 2.86 ± 0.051 | protein stability index (ubr1∆): 3.23 ± 0.043

FLERFDFYTRHHFTCEI [ITC1]
protein stability index (pdr5∆): 2.26 ± 0.097 | protein stability index (san1∆): 2.31 ± 0.16 | protein stability index (ubr1∆): 2.61 ± 0.11

FAAAPNDTSSGTNAMLP [SNF5]
protein stability index (doa10∆): 3.13 ± 0.078 | protein stability index (pdr5∆): 3.26 ± 0.13 | protein stability index (san1∆): 3.06 ± 0.096 | protein stability index (ubr1∆): 2.89 ± 0.1

EEVVSNDEGVWDLVDER [PRP8]
protein stability index (doa10∆): 3.56 ± 0.073 | protein stability index (pdr5∆): 3.47 ± 0.057 | protein stability index (san1∆): 3.42 ± 0.07 | protein stability index (ubr1∆): 3.49 ± 0.058

PTKTLTTKERKKSRLGN [PRP8]
protein stability index (doa10∆): 2.33 ± 0.079 | protein stability index (pdr5∆): 2.26 ± 0.072 | protein stability index (san1∆): 2.91 ± 0.094 | protein stability index (ubr1∆): 2.62 ± 0.056

VIRDSVTYTEHAKRKTV [HHF1]
protein stability index (doa10∆): 1.8 ± 0.081 | protein stability index (pdr5∆): 1.4 ± 0.074 | protein stability index (san1∆): 1.44 ± 0.12 | protein stability index (ubr1∆): 2.03 ± 0.051

TLKLQDTRITPSKVSKI [PRE6]
protein stability index (doa10∆): 2.53 ± 0.05 | protein stability index (pdr5∆): 2.85 ± 0.052 | protein stability index (san1∆): 2.34 ± 0.1 | protein stability index (ubr1∆): 2.01 ± 0.031

NNTNNANSSITPAFGSN [YJL041W/NSP1]
protein stability index (doa10∆): 3.06 ± 0.11 | protein stability index (pdr5∆): 3.06 ± 0.11 | protein stability index (san1∆): 2.86 ± 0.11 | protein stability index (ubr1∆): 3.06 ± 0.12

LDGKFSLFHTAVSVANG [RPN2]
protein stability index (doa10∆): 2.09 ± 0.056 | protein stability index (pdr5∆): 2.03 ± 0.057 | protein stability index (san1∆): 2.45 ± 0.077 | protein stability index (ubr1∆): 2.37 ± 0.06

FIPHGLKRRQVIEQCYL [SRB8]
protein stability index (doa10∆): 2.78 ± 0.074 | protein stability index (pdr5∆): 2.63 ± 0.08 | protein stability index (san1∆): 2.46 ± 0.1 | protein stability index (ubr1∆): 2.44 ± 0.049

ATSSTNANAGLFNKPPS [YOR098C/NUP1]
protein stability index (doa10∆): 2.86 ± 0.053 | protein stability index (pdr5∆): 3.06 ± 0.073 | protein stability index (san1∆): 3.05 ± 0.079 | protein stability index (ubr1∆): 3.3 ± 0.058

EYADNDEDKFKKLKPIV [PRP28]
protein stability index (doa10∆): 2.82 ± 0.072 | protein stability index (pdr5∆): 2.65 ± 0.092 | protein stability index (san1∆): 3.09 ± 0.09 | protein stability index (ubr1∆): 2.64 ± 0.041

SHEERIEAIDEYNKPNS [ISW2]
protein stability index (doa10∆): 2.01 ± 0.063 | protein stability index (pdr5∆): 2.12 ± 0.054 | protein stability index (san1∆): 1.84 ± 0.076 | protein stability index (ubr1∆): 2.94 ± 0.039

SDMENDNLLLNLEQINE [REC8]
protein stability index (doa10∆): 2.76 ± 0.056 | protein stability index (pdr5∆): 2.75 ± 0.048 | protein stability index (san1∆): 2.72 ± 0.06 | protein stability index (ubr1∆): 2.86 ± 0.048

SMKYDNGVIIAADNLGS [PRE4]
protein stability index (doa10∆): 2.66 ± 0.15 | protein stability index (pdr5∆): 3.35 ± 0.088 | protein stability index (san1∆): 2.5 ± 0.13 | protein stability index (ubr1∆): 3.06 ± 0.11

DLNTRISVIETIRVVTE [RPN5]
protein stability index (doa10∆): 1.64 ± 0.15 | protein stability index (pdr5∆): 2.04 ± 0.12 | protein stability index (ubr1∆): 2.97 ± 0.15

DVCKTRFNHLVTRLFFI [YML031W/NDC1]
protein stability index (doa10∆): 1.79 ± 0.046 | protein stability index (pdr5∆): 1.53 ± 0.039 | protein stability index (san1∆): 1.52 ± 0.072 | protein stability index (ubr1∆): 1.77 ± 0.034

RRSKMNPLWNAIIVAGV [PRE4]
protein stability index (doa10∆): 2.87 ± 0.097 | protein stability index (pdr5∆): 3.25 ± 0.12 | protein stability index (san1∆): 2.86 ± 0.097 | protein stability index (ubr1∆): 2.93 ± 0.074

LSALFTISSKPDILATD [YCS4]
protein stability index (doa10∆): 2.32 ± 0.14 | protein stability index (pdr5∆): 2.78 ± 0.14 | protein stability index (san1∆): 2.72 ± 0.088 | protein stability index (ubr1∆): 2.98 ± 0.11

KTLKRMIKESSTANPNI [POP1]
protein stability index (doa10∆): 2.54 ± 0.1 | protein stability index (pdr5∆): 2.76 ± 0.091 | protein stability index (san1∆): 2.28 ± 0.092 | protein stability index (ubr1∆): 2.67 ± 0.054

LRLVDDDENNPSHYPHP [RRP6]
protein stability index (doa10∆): 3.11 ± 0.09 | protein stability index (pdr5∆): 2.92 ± 0.093 | protein stability index (san1∆): 2.77 ± 0.069 | protein stability index (ubr1∆): 2.89 ± 0.038

RSMDAEQLGHASKRHKP [RPP1]
protein stability index (doa10∆): 2.55 ± 0.056 | protein stability index (pdr5∆): 2.87 ± 0.053 | protein stability index (san1∆): 2.73 ± 0.054 | protein stability index (ubr1∆): 2.74 ± 0.046

LEPGCSVLLHHKTMSIV [RPT2]
protein stability index (doa10∆): 1.39 ± 0.067 | protein stability index (pdr5∆): 1.58 ± 0.049 | protein stability index (san1∆): 1.38 ± 0.087 | protein stability index (ubr1∆): 1.61 ± 0.04

KTSLSIKVENLNDTTEK [SMC2]
protein stability index (doa10∆): 2.87 ± 0.058 | protein stability index (pdr5∆): 2.97 ± 0.081 | protein stability index (san1∆): 3.09 ± 0.063 | protein stability index (ubr1∆): 2.89 ± 0.05

DDDEIVMPVPNVRSSVL [SKP1]
protein stability index (doa10∆): 2.42 ± 0.053 | protein stability index (pdr5∆): 2.25 ± 0.058 | protein stability index (san1∆): 2.45 ± 0.062 | protein stability index (ubr1∆): 2.48 ± 0.051

SSNIAGTNPLSSDGAYT [SSN2]
protein stability index (doa10∆): 3.04 ± 0.13 | protein stability index (pdr5∆): 2.73 ± 0.17 | protein stability index (san1∆): 3.03 ± 0.062 | protein stability index (ubr1∆): 3.33 ± 0.12

KNMPVIYNNIVSNIEGI [RGR1]
protein stability index (doa10∆): 2.43 ± 0.055 | protein stability index (pdr5∆): 2.69 ± 0.066 | protein stability index (san1∆): 2.5 ± 0.05 | protein stability index (ubr1∆): 2.56 ± 0.041

KMENFEFLPLSLHILMI [SRB8]
protein stability index (doa10∆): 2.79 ± 0.077 | protein stability index (pdr5∆): 2.8 ± 0.054 | protein stability index (san1∆): 1.91 ± 0.076 | protein stability index (ubr1∆): 2.85 ± 0.06

LVRELYQWRDLIARRDD [RRP6]
protein stability index (doa10∆): 2.96 ± 0.056 | protein stability index (pdr5∆): 2.77 ± 0.062 | protein stability index (san1∆): 2.65 ± 0.055 | protein stability index (ubr1∆): 2.25 ± 0.043

KDTTGPKAISNFLIKLS [YCS4]
protein stability index (doa10∆): 2.09 ± 0.11 | protein stability index (pdr5∆): 2.08 ± 0.1 | protein stability index (san1∆): 1.34 ± 0.14 | protein stability index (ubr1∆): 1.52 ± 0.065

KVIKVLGRTGSRGGVTQ [RPS28A]
protein stability index (doa10∆): 3.02 ± 0.073 | protein stability index (pdr5∆): 3.04 ± 0.058 | protein stability index (san1∆): 2.73 ± 0.085 | protein stability index (ubr1∆): 3.12 ± 0.083

DPPKGILLYGPPGTGKT [RPT1]
protein stability index (doa10∆): 2.94 ± 0.28 | protein stability index (pdr5∆): 2.71 ± 0.28 | protein stability index (ubr1∆): 3.23 ± 0.17

PGSSITETEVEREQPQE [SRB4]
protein stability index (doa10∆): 3.09 ± 0.093 | protein stability index (pdr5∆): 3.38 ± 0.12 | protein stability index (san1∆): 3.07 ± 0.075 | protein stability index (ubr1∆): 3.35 ± 0.078

MAHFKEYQVIGRRLPTE [RPL20A]
protein stability index (doa10∆): 2.21 ± 0.071 | protein stability index (pdr5∆): 2.07 ± 0.061 | protein stability index (san1∆): 1.4 ± 0.1 | protein stability index (ubr1∆): 2.4 ± 0.047

SWASEGISKKTRIAGVV [RPS8A]
protein stability index (doa10∆): 2.54 ± 0.039 | protein stability index (pdr5∆): 2.28 ± 0.034 | protein stability index (san1∆): 2.17 ± 0.045 | protein stability index (ubr1∆): 2.03 ± 0.034

TSCTIPKAVVDHINGSG [GAL11]
protein stability index (doa10∆): 2.23 ± 0.083 | protein stability index (pdr5∆): 2.78 ± 0.077 | protein stability index (san1∆): 1.24 ± 0.12 | protein stability index (ubr1∆): 1.79 ± 0.087

FTFGLTVVQVYDNGQVF [RPP0]
protein stability index (doa10∆): 1.26 ± 0.09 | protein stability index (pdr5∆): 1.3 ± 0.1 | protein stability index (san1∆): 1.36 ± 0.28 | protein stability index (ubr1∆): 1.39 ± 0.16

AVDAKQLAQIRQFLKAN [YML103C/NUP188]
protein stability index (doa10∆): 2.58 ± 0.12 | protein stability index (pdr5∆): 3.06 ± 0.079 | protein stability index (san1∆): 2.96 ± 0.093 | protein stability index (ubr1∆): 2.78 ± 0.067

PFLNETKPGVYYVPYSK [RPC82]
protein stability index (doa10∆): 3.09 ± 0.12 | protein stability index (pdr5∆): 2.97 ± 0.13 | protein stability index (san1∆): 3.03 ± 0.064 | protein stability index (ubr1∆): 3.36 ± 0.091

NPSITRLEEESSWQIYS [RRP4]
protein stability index (pdr5∆): 3.07 ± 0.21 | protein stability index (ubr1∆): 2.07 ± 0.097

GMVSHKTARGKAALERL [RPL16A]
protein stability index (san1∆): 3.17 ± 0.13

NFNPDNGFAPISEVMED [FAS1]
protein stability index (doa10∆): 3.3 ± 0.085 | protein stability index (pdr5∆): 3.06 ± 0.042 | protein stability index (san1∆): 3.2 ± 0.044 | protein stability index (ubr1∆): 3.17 ± 0.033

FKPSQEPEFHALSQSSL [RRI1]
protein stability index (doa10∆): 2.61 ± 0.05 | protein stability index (pdr5∆): 2.83 ± 0.043 | protein stability index (san1∆): 2.8 ± 0.042 | protein stability index (ubr1∆): 2.42 ± 0.04

SSWQIYSDENDPSISNN [RRP4]
protein stability index (doa10∆): 2.48 ± 0.12 | protein stability index (pdr5∆): 3.16 ± 0.11 | protein stability index (san1∆): 3.06 ± 0.072 | protein stability index (ubr1∆): 3.33 ± 0.14

MIIDEGHRMKNAQSKLS [SNF2]
protein stability index (doa10∆): 1.45 ± 0.072 | protein stability index (pdr5∆): 1.98 ± 0.061 | protein stability index (san1∆): 1.67 ± 0.089 | protein stability index (ubr1∆): 1.93 ± 0.089

DNATLTELVDKANIFQV [SSN2]
protein stability index (doa10∆): 3.09 ± 0.15 | protein stability index (pdr5∆): 3.56 ± 0.12 | protein stability index (san1∆): 3.21 ± 0.085 | protein stability index (ubr1∆): 3.11 ± 0.11

NKYQIKKAVKELYEVDV [RPL25]
protein stability index (doa10∆): 3.03 ± 0.077 | protein stability index (pdr5∆): 3.15 ± 0.078 | protein stability index (san1∆): 3.12 ± 0.042 | protein stability index (ubr1∆): 3.21 ± 0.06

TLQTISFLGYLRYVKQI [ISW2]
protein stability index (doa10∆): 2.24 ± 0.044 | protein stability index (pdr5∆): 1.71 ± 0.049 | protein stability index (san1∆): 1.5 ± 0.094 | protein stability index (ubr1∆): 1.96 ± 0.048

HDVGELFWKVKEEEGSF [PRE2]
protein stability index (doa10∆): 2.71 ± 0.081 | protein stability index (pdr5∆): 2.97 ± 0.08 | protein stability index (san1∆): 2.92 ± 0.064 | protein stability index (ubr1∆): 2.86 ± 0.07

SNGSGIVAAGGGSGAAT [CSL4]
protein stability index (doa10∆): 3.53 ± 0.12 | protein stability index (pdr5∆): 3.53 ± 0.18 | protein stability index (san1∆): 3.45 ± 0.11 | protein stability index (ubr1∆): 3.48 ± 0.11

Source: the supplement of paper PMC9732359
